Test results as given in publication PMC9894162.

Molecular target: GST-NS5 (Zika virus, UniProt A0A1B0XTC8 2521-3423)
Assay: EMSA

B1: genomic Sox2 DNA duplex (dsDNA)
DNA 1: TCAGCAAGCGCCTGGGCGCCGAGTGGAAACTTTTG
DNA 2: CAAAAGTTTCCACTCGGCGCCCAGGCGCTTGCTGA
binding result: binds
